Data as given in paper PMC4066776, “Molecular determinants of the DprA−RecA interaction for nucleation on ssDNA” (Nucleic Acids Research, 2014).

What was measured:
[1] = target: T1, S. pneumoniae RecA lacking the first 28 residues (Δ28), purified (S. pneumoniae, UniProt P0A451 29-388); experiment: pull-down; pull-down on magnetic beads using purified proteins; which partner was on the beads is told only in the supplementary methods; conditions: both partners purified
T1 construct: RecA, Streptococcus pneumoniae, locus Sp1940, the 28 first residues removed; also called Δ28RecA; source: E. coli, purified (Ni-NTA column, gel filtration)

[2] = target: the molecule itself; experiment: SAXS; scattering curve of 5KA DprA in solution superimposed on that of WT DprA (the latter taken from ref. 18)

B1: S. pneumoniae DprA K119A/K144A/K175A/K202A/K225A (5KA), purified (natural protein)
chain: MKITNYEIYKLKKSGLTNQQILKVLEYGENVDQELLLGDIADISGCRNPAVFMERYFQIDDAHLSKEFQKFPSFSILDDCYPWDLSEIYDAPVLLFYKGNLDLLKFPKVAVVGSRACSAQGAKSVEKVIQGLENELVIVSGLAAGIDTAAHMAALQNGGKTIAVIGTGLDVFYPAANKRLQDYIGNDHLVLSEYGPGEQPLAFHFPARNRIIAGLCRGVIVAEAAMRSGSLITCERAMEEGRDVFAIPGSILDGLSDGCHHLIQEGAKLVTSGQDVLAEFEF
notes: DprA, Streptococcus pneumoniae, locus Sp1266, five lysines K119/K144/K175/K202/K225 mutated to alanines; also called 5KADprA; 5KA mutant; source: E. coli, purified (Ni-NTA column, gel filtration)
binding result [1]: binds
stoichiometry N [2]: 2
